From patent US20150313972A1
Several values for one entry are separate records, joined by “and”; a condition that tells them apart may be missing. Equal values may be shown once.

Molecular target: M6P receptors on the surface of human fibroblasts (human), P11717
Assay: cell-based or functional assay

Chain of M6P receptors on the surface of human fibroblasts (human), P11717 (P11717 41-2491): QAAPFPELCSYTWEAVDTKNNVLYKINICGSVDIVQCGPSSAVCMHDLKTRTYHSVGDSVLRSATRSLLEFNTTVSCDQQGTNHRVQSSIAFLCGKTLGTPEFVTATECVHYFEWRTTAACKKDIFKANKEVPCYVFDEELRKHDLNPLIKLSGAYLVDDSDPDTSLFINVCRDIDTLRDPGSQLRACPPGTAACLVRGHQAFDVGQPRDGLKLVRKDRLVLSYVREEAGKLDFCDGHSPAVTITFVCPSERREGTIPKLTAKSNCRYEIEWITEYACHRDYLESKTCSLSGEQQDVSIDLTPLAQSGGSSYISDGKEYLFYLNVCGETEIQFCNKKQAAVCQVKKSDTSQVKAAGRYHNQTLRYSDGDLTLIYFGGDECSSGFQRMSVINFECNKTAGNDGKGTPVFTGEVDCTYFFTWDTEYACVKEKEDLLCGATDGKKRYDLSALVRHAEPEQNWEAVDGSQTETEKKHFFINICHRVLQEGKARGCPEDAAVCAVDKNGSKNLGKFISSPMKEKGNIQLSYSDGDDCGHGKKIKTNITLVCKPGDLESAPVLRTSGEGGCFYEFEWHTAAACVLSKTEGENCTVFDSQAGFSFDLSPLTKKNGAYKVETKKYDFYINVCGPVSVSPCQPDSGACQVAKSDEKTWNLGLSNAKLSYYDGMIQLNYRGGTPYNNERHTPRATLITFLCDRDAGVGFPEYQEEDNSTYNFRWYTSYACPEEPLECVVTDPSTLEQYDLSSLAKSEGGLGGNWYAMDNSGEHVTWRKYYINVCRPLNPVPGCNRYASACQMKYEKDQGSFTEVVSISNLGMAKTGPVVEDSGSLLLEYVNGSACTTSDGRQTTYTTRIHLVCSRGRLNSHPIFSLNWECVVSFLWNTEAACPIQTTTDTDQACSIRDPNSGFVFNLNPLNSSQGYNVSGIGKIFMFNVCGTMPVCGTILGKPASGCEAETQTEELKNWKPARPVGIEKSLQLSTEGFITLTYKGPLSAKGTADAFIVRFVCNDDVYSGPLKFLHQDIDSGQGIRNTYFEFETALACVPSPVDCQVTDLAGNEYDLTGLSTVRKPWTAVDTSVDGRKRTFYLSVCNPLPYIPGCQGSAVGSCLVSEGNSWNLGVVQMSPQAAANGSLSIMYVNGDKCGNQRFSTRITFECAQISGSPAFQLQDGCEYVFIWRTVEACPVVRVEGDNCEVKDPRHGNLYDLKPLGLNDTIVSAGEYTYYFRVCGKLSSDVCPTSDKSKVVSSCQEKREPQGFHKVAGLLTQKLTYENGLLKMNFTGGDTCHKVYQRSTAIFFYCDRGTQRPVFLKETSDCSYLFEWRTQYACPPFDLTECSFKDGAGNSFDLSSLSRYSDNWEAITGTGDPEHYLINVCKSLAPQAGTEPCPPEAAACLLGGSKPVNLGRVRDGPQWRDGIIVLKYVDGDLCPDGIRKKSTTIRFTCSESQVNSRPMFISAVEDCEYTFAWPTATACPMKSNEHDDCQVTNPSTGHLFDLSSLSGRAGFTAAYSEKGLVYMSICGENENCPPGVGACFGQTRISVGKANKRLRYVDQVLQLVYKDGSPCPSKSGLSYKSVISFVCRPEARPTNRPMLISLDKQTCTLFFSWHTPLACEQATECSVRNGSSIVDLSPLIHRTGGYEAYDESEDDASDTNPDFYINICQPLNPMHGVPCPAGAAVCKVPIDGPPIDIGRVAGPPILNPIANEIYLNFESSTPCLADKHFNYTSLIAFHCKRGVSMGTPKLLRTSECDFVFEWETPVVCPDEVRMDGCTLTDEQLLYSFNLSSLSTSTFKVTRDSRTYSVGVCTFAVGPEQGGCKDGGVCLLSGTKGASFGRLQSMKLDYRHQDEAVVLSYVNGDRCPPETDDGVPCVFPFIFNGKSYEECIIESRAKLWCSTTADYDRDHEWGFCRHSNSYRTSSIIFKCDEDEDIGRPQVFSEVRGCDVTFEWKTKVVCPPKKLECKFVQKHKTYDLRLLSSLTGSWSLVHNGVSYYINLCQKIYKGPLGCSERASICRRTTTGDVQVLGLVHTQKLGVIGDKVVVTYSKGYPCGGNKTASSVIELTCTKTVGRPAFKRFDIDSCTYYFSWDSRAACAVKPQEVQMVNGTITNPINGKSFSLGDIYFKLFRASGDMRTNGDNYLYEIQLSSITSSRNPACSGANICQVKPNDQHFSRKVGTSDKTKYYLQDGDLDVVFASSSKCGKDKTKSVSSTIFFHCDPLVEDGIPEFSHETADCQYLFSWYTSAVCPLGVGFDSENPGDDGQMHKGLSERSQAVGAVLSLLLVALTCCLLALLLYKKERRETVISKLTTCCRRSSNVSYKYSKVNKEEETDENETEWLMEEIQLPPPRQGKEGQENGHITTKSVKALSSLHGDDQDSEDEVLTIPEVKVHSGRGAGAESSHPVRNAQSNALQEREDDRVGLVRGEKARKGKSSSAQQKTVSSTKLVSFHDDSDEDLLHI

B1: purified recombinant human iduronate-2-sulfatase (I2S) produced in serum-free medium, P22304 26-550 (enzyme)
chain: SETQANSTTDALNVLLIIVDDLRPSLGCYGDKLVRSPNIDQLASHSLLFQNAFAQQAVCAPSRVSFLTGRRPDTTRLYDFNSYWRVHAGNFSTIPQYFKENGYVTMSVGKVFHPGISSNHTDDSPYSWSFPPYHPSSEKYENTKTCRGPDGELHANLLCPVDVLDVPEGTLPDKQSTEQAIQLLEKMKTSASPFFLAVGYHKPHIPFRYPKEFQKLYPLENITLAPDPEVPDGLPPVAYNPWMDIRQREDVQALNISVPYGPIPVDFQRKIRQSYFASVSYLDTQVGRLLSALDDLQLANSTIIAFTSDHGWALGEHGEWAKYSNFDVATHVPLIFYVPGRTASLPEAGEKLFPYLDPFDSASQLMEPGRQSMDLVELVSLFPTLAGLAGLQVPPRCPVPSFHVELCREGKNLLKHFRFRDLEEDPYLPGNPRELIAYSQYPRPSDIPQWNSDKPSLKDIKIMGYSIRTIDYRYTVWVGFNPDEFLANFSDIHAGELYFVDSDPLQDHNMYNDSQGGDLFQLLMP
modifications: here or on the partner: cysteine corresponding to Cys59 of mature human I2S (SEQ ID NO:1) converted to C-alpha-formylglycine (87-95% in Table 4, 94% in Table 13); glycans bearing sialic acid and mannose-6-phosphate
Question: Which results are given for B1?
Answer: Cell Uptake: 98; Cellular Uptake (Bioassay): 85% and 95% and 97%; Internalization: 83%
